Data published in patent US12162937B2, “Methods of treating an inflammatory disorder by administering an antibody which binds to a connexin CX43 hemichannel” (BOARD OF REGENTS OF THE UNIVERSITY OF TEXAS SYSTEM, priority 2013, dated 2024).
Entries after “also recorded” stand apart in the source; their conditions may differ. Like-named read-outs stand apart in the source and are kept apart here.

B1: M1: mouse monoclonal antibody, heavy chain SEQ ID NO:2, light chain SEQ ID NO:4 (antibody, listed as Mus musculus)
heavy: EVQLEQPGAELVKPGASVKLSCKASGYTFTSYYMYWVKQRPGQGLEWIGGINPSNGGTNFNEKFKNKATLTVDKSSSTAYMQLSSLTSEDSAVYYCTREGNPYYTMNYWGQGTSVTVSSAKTTPPSVY
light: DIVMTQTPASLAVSLGQRATISYRASKSVSTSGYSYMHWNQQKPGQPPRLLIYLVSNLESGVPARFSGSGSGTDFTLNIHPVEEEDAATYYCQHIRELTRSEGGPSWK
B2: M2: mouse monoclonal antibody, heavy chain SEQ ID NO:6, light chain SEQ ID NO:8 (antibody, listed as Mus musculus, V domains shown)
VH: B1 heavy
VL: DIVMTQTPSSLSVSAGEKVTMSCKSSQSLLNSGNQKTYLAWYQQKPGQPPKLLIYGASTRESGVPDRFTGSGSGTDFTLTISSVQAEDLAVYYCQNDHSYPFTFGSGTKLEIKRADAAPTVS
B3: M7: mouse monoclonal antibody, heavy chain SEQ ID NO:10, light chain SEQ ID NO:12 (antibody, listed as Mus musculus)
heavy: LEQPGAELVRPGASVMLSCKASGYIFTTYWMHWLKQRPGQGLDWIGEISPSNGRSNYNKKFKSKATLTVDKSSSTAYMQLSSLTSEDSAVYYCARFDEGDFWGQGTTLIVSSAKTTAPSVYPLAPVCGDTTGSSV
light: B1 light

How the values were obtained:
MDA-MB-231 cells = assay: Wound healing migration assay; type: cell-based; conditions: cancer cells treated directly with AD
Excerpt: FIGS. 5A and 5B illustrate the results of studies using a wound healing migration assay. CM-AD from osteocytes inhibits MDA-MB-231 cell migration.
FIG. 6 illustrates results of another wound healing migration assay.
Opening of osteocytic Cx43 hemichannels mediate a negative effect on cancer cell migration. Cx43 hemichannels in osteocytes are opened by administration of AD or FFSS. The opened hemichannels permit the release of various factors into the medium producing a conditioned medium (CM). The released factor(s) in the AD- or FFSS-treated CM decrease cancer cell migration as determined by soft agar and wound healing assays. An example of a soft agar assay is diagrammed in FIG. 3. […] The soft agar assay is an assay for anchorage-independent growth, as contrasted with anchorage-dependent growth. Only cancer cells can grow on soft agar and their growth on this matrix indicates the extent of the cancer cell proliferation.
In certain aspects the methods include incubating primary osteocytes or osteocyte cell lines with a test reagent in α-MEM for various periods of time and collecting the supernatant (conditioned media) at various time points. In certain aspects breast or prostate cancer cells are incubated with CM and cancer cell proliferation, migration, and invasion are determined.

Cx43 hemichannels [1] = biological target: T1, Cx43 hemichannels (Mus musculus, UniProt P23242); conditions: MLO-A5 osteoblasts, AD treatment
T1 sequence (P23242 whole entry): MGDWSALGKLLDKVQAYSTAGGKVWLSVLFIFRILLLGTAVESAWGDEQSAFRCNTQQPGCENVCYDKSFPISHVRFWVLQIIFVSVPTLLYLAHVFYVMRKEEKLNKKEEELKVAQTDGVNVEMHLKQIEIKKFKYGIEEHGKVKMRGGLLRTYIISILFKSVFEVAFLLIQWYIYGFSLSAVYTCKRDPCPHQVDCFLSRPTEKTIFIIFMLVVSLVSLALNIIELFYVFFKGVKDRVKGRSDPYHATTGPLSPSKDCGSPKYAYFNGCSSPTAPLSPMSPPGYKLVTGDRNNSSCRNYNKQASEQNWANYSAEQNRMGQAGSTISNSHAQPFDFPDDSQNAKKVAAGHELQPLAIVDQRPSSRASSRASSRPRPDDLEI
Method: Ethidium bromide dye uptake was conducted and quantified as compared to non-treated basal level of uptake. Study was carried out in calcium conditions. Low calcium conditions were used as control (opens hemichannels). […] MLO-Y4 osteocytic cells were treated with 20 μM AD for 30 min in the absence or presence of 1 μg/ml Cx43(E2) antibody. Ethidium bromide dye uptake assay was conducted and quantified as compared to non-treated basal level of uptake. The assays were carried out in the presence of calcium. Low calcium conditions were used as a control (opens hemichannels).

[2] = biological target: Cx43 hemichannels in osteocytes (Homo sapiens, UniProt P17302); conditions: Plotkin et al., 2002; cited from earlier work
Sequence of Cx43 hemichannels in osteocytes (P17302 whole entry): as the sequence (P23242 whole entry) above, with E124D, V164I, R243K, T251S, P253A, S257A, P263Q, S341N, A344S, V347L counted along it

[3] = biological target: T2, gap junctions (HeLa cells transfected with Cx43) (Homo sapiens, UniProt P17302); assay: Microinjection dye transfer (dye coupling) assay for gap junctions; type: cell-based; conditions: HeLa cells transfected with Cx43, mAbs for 3 h
T2 construct: expressed in transfected cells; host or cells: HeLa cells
T2 sequence (P17302 whole entry): as the sequence (P23242 whole entry) above, with E124D, V164I, R243K, T251S, P253A, S257A, P263Q, S341N, A344S, V347L counted along it
Method: (§1) Dye uptake assay was performed in the presence of EtBr with or without mAbs for 20 min. (B) HeLa cells transfected with Cx43 were incubated with mAbs for 3 h and a signal cell was microinjected with AlexaFluor 488 to evaluate the extent of dye transfer assayed for gap junctions.
Dye coupling assay for gap junctions. MLO-Y4 cells were plated on collagen coated 35 mm dish and incubated with recording medium (HCO3^− free αMEM medium buffered with 10 mM HEPES). Cells were microinjected using a micromanipulator InjectMan NI 2 and Femtojet both from Eppendorf (Eppendorf) at 37° C. with alexafluor 350 (Invitrogen, Eugene, Oregon, USA) (10 mM in PBS). Dye transfer was measured after 2 minutes of alexafluor 350 injection. The index of dye coupling was scored counting the number of cells that were dye transferred. Dye coupling was observed under an inverted microscope equipped with Xenon arc lamp illumination and a Nikon eclipse (Nikon, Japan) (excitation wavelengths 330-380 nm; emission wavelengths above 420 nm).

[4] = biological target: T3, gap junction channels (Hela cells transfected with Cx43) (Homo sapiens, UniProt P17302); assay: Parachuting dye transfer assay for gap junctions; type: cell-based; conditions: Hela cells transfected with Cx43, calcein red-orange-AM / Oregon green 488 BAPTA-2-AM
T3 construct: expressed in transfected cells; host or cells: HeLa cells
T3 sequence (P17302 whole entry): as the sequence (P23242 whole entry) above, with E124D, V164I, R243K, T251S, P253A, S257A, P263Q, S341N, A344S, V347L counted along it
Method: FIG. 15 illustrates parachuting dye transfer assay showing M2 and M7, but not M1 blocks gap junction channels. Hela cells transfected with Cx43 was used for parachuting dye transfer experiments. Donor cells were incubated with 5 μM calcein red-orange-AM (790 Da) which is permeable to gap junctions and 5 μM Oregon green 488 BAPTA-2-AM (1752 Da) which is non-permeable to gap junctions for 40 minutes at 37° C. Donor cells were treated with trypsin and separated preloaded cells were layered (‘parachuted’) over the top of the unlabeled recipient cells at a 1:4 donor to receiver ratio. Cells were allowed to attach for 90 min. The cells were examined under a fluorescence microscope.
Cell parachute dye-transfer assay for gap junctions. MLO-Y4 cells were grown to confluence in 12 well plates. The donor cells were incubated with 5 μM calcein red-orange-AM (790 Da) and 5 μM Oregon green 488 BAPTA-2-AM (1752 Da) for 40 minutes at 37° C. Gap junction intercellular communication can be followed by simultaneously labeling cells with calcein red-orange as a gap junction permeable tracer dye and the gap junction channel impermeable dye Oregon green 488 BAPTA-2. Donor cells preloaded were remove form the plate by trypsinization. Preloaded cells were layered (‘parachuted’) over the top of the unlabeled recipient cells cultured in at a 1:4 donor to receiver ratio. Cells were allowed to attach for various periods 1 hours, and then carefully washed 3 times and fixed in fresh 2% PFA 10 min RT and rinse 3 times again. The cells were examined with a fluorescence microscope. For calcein red-orange transfer, the threshold was adjusted to clearly distinguish the dye-transfer boundaries. The dye transfer positive criterion was detecting the calcein red-orange/Oregon green 488 BAPTA-2 with contact cells calcein red-orange positive and Oregon green 488 BAPTA-2 negative. The dye transfer was almost undetectable (<1%). The images were taken in places where we found Oregon green 488 BAPTA-2 green positive cells.

[5] = biological target: T4, hemichannel opening in mouse bone osteocytes (Mus musculus, UniProt P23242); assay: Evans blue dye uptake in mechanically loaded tibias in vivo; conditions: 25 mg/kg injected 2 hr before Evans blue dye, tibia loaded 10 min
T4 construct: from tissue; host or cells: tibial bone osteocytes of living WT mice (Cx43 cKO mice as negative control)
T4 sequence (P23242 whole entry): as the sequence (P23242 whole entry) above
Method: FIG. 17. […] Mouse IgG or Cx43(M1) mAb (25 mg/kg) was injected 2 hr before Evans blue dye injection Into WT and Cx43 cKO mice. 30 min after dye injection, left (L) tibias were mechanically loaded once for 10 min. Mice were euthanized and perfused with 50 ml PBS. Tibias were isolated and fixed and bone tissue sections were prepared. Bar, […]. The arrowheads indicate dye uptake.
Determining the effect a compound on the opening of hemichannels in osteocytes in bone tissue in vivo. One example of an in vivo assay to analyze hemichannels in osteocytes uses 3-4 month old mice or rats. The animals are weighed. A test reagent is introduced into the animal through intraperitoneal (IP) injection. After 2-4 hours, fluorescence tracer dyes (i.e. Evans blue, Alexa 594) are injected into lateral tail vein of the animal or by IP injection. Note: up to 1% of animal's body weight in volume can be injected. In certain aspects the animal is warmed prior to tail vein injection to dilate the tail vein. After 2-4 hours, the animal is scarified and tibial and femur bones free of muscle tissues are dissected and washed multiple times with PBS. […] The bone sections can be examined under fluorescence microscope and the degree of osteocytes in the bone taking up tracer dyes are quantified using Image J. […]

Cx43 hemichannels [6] = biological target: T1, Cx43 hemichannels; assay: Dye uptake assay for hemichannel activity in low Ca2+ and Mg2+ media; type: cell-based; design: endogenous in cells; host or cells: MLO-Y4 osteocytic cells; conditions: MLO-Y4 cells, mAbs for 20 min
Method: as §1
(§2) Dye uptake for hemichannel activities. Dye uptake measurements were evaluated using snap shot photographs. MLO-Y4 cells were plated on the collagen coated 35 mm dish and incubated with recording medium, HCO3^− free saline medium buffered with 10 mM HEPES salt composition in mM, 154 NaCl, 5.4 KCl, 1.8 CaCl2, 1.0 MgCl2, 5 Glucose. Medium with low concentration of divalent cation (low[X^2]) was added 0.5 mM EGTA but not CaCl2 and MgCl2. The recording or low[X^2] containing 50 μM EtBr for snap shot recording. Cells were exposed to 100 μM of EtBr during 5 min, then rinsed 3 times with PBS and fixed with 2% […]. At least 3 microphotographs of fluorescence fields were taken with a 10× dry objective in an inverted microscope (Carl Zeiss) with a rhodamine filter. The image analysis was made offline with the software image J. The average of pixel density of 30 random cells was measured.

Cx43 hemichannels [7] = biological target: T1, Cx43 hemichannels; assay: Dye uptake after fluid flow shear stress in MLO-Y4 cells; type: cell-based; design: endogenous in cells; host or cells: MLO-Y4 osteocytic cells; conditions: mAbs 20 min pretreatment, fluid flow shear stress 8 dynes/cm^2 10 min, 100 μM EtBr 5 min
Method: FIG. 16. […] MLO-Y4 cells were pretreated with or without mAbs for 20 min. The cells were subjected to fluid flow shear stress at 8 dynes/cm^2 for 10 min and dye uptake was performed with 100 μM EtBr for 5 min. Cells were rinsed, fixed and images were taken under fluorescence microscopy.
as §2
Fluid flow shear stress to open hemichannels. Fluid flow was created by parallel-plate flow chambers separated by a gasket of defined thickness with gravity-driven fluid flow using a peristaltic pump. The thickness of the gasket determined the channel height, which was adjusted along with flow rate to generate stress levels of 16 dyn/cm^2. The circulating medium was α-MEM buffered with 10 mM HEPES.

Molecule	direct effect on migration of MDA-MB-231 cells (MDA-MB-231 cells)	opening of Cx43 hemichannels in osteoblasts (Cx43 hemichannels [1])	opening of Cx43 hemichannels in osteoblasts (Cx43 hemichannels [1]; listed as alendronate)	opening of Cx43 hemichannels in osteocytes [2]	blocking of gap junctions (AlexaFluor 488 dye transfer) [3]	blocking of gap junction channels (parachuting dye transfer) [4]	blocking of hemichannel opening induced by mechanical loading in osteocytes in vivo [5]	blocking of hemichannels (EtBr dye uptake) (Cx43 hemichannels [6])	blockage of hemichannel opening induced by mechanical loading (Cx43 hemichannels [7])
NCCCC(O)(P(=O)(O)O)P(=O)(O)O [AD, alendronate]	does not have a direct effect; also recorded: not seen	does not open	do not appear to open	induces the opening	–	–	–	–	–
B1	–	–	–	–	not gap junctions	not	blocks	blocks hemichannels	blockage
B2	–	–	–	–	blocks gap junctions	blocks	–	not hemichannels	not
B3	–	–	–	–	–	blocks	–	–	blockage
